Experimental findings from US20210070872A1 (AGENUS, published 2021) are described below.

For the assay, the target named is T1, biotinylated GITR (human, UniProt Q9Y5U5 26-161, limits assumed, biotinylated (sites not given)).
T1 construct: also called GITR-bio; Biotin-GITR
T1 sequence: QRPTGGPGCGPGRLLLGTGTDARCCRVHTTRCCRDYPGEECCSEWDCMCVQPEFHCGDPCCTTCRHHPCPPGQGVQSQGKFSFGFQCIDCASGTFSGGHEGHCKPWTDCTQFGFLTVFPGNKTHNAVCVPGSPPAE
Description: BLI (Octet), biotin-GITR on streptavidin tips, antibody supernatant. Here is the method:
Several hundred germlined antibodies were selected based on binding kinetics as determined by Octet measurements (Octet RED 96 system; ForteBio™ Inc., Menlo Park, Calif.). The experimental procedure was configured according to the instruction manual of the instrument. Biotin-GITR was bound to Streptavidin biosensor (SA) and PBS (pH 7.4) was used as a blank control. Briefly, the interaction analyses were conducted at 30° C. in running buffer (PBS, 0.05% Tween, pH7.4). Sensor tips were pre-wet for 10 minutes in running buffer immediately prior to use, and the micro plates used in the Octet were filled with 200 μl of sample or buffer per well and agitated at 800 rpm. For the experiments, commercially available precoated SA tips were used. Biotinylated GITR was loaded onto the ForteBio SA fibers in PBS pH7.4 for 10 minutes and washed for 4 minutes. For the association phase, the ligand-coated SA tips were immersed for 5 minutes in cell culture supernatant that was diluted 1:10 in running buffer prior to the measurement. Dissociation of the antibody-antigen complex was measured in wells containing the Octet buffer alone for 5 minutes. After each run, the tips were regenerated with Glycine (10 mM, pH 2.0). Affinity, Kₒₙ and Koff were determined with Octet evaluation software v6.3 using a 1:1 binding model with local full fitting.
In general terms: Biolayer interferometry detects binding as a change in optical thickness at a sensor tip.

Residue numbers refer to the chain shown, from its start.

B1: germline variant antibody 39 (H1916D09 / K1916D09) (antibody, V domains shown)
VH: QVQLVQSGAEVKKPGASVKVSCKGSGYTFTGYAMHWVRQAPGQGLEWMGLIRTYSGGVSYNQKFRERATMTVDTSISTAYMELSRLRSDDTAVYYCAKSGTVRGFAYWGQGTLITVSS
VL: DIVMTQSPDSLAVSLGERATINCKSSQSLLNSSNQKNYLTWYQQKPGQPPKLLIYWASTRESGVPDRFTGSGSGTDFTLTISSVQAEDVAVYHCQNEYSFPYTFGQGTKLEIK
notes: IGHG1/IGKC expression vectors; measured from CHO culture supernatant; also called Antibody ID 39
As for B1, the Kd – broadly, the free concentration of one partner at which half of the binding sites on the other are occupied at equilibrium, for simple one-to-one binding – was determined as 0.255 nM; the koff (as a rule, a measure of how fast the partners let go of each other) amounted to 0.000997 s⁻¹; the kon (usually the second-order rate constant of association) was found to be 3.91e+06 M⁻¹ s⁻¹.

B2: germline variant antibody 35 (H1916D05 / K1916D05) (antibody, V domains shown)
VH: QVQLVQSGAEAKKPGASVKVSCKGSGYTFTGYAMYWVRQAPGQGMEWIGVIRTFSGDVTYNQKFRGRVTMTVDTSISTAYMELSRLRSDDTAVYYCAKSGTVRGFAYWGQGTLVTVSS
VL: B1 VL with S33G, Q43H, H93Y, E97D, F100Y
notes: IGHG1/IGKC expression vectors; measured from CHO culture supernatant; also called Antibody ID 35
B2 registered a Kd of 0.187 nM, a koff of 0.00024 s⁻¹ and a kon of 1.29e+06 M⁻¹ s⁻¹.

B3: germline variant antibody 71 (H1917B07 / K1917B07) (antibody, V domains shown)
VH: B2 VH with A11V, G24A, I48M, D57G, V68A
VL: B1 VL with E97D, F100Y
notes: IGHG1/IGKC expression vectors; measured from CHO culture supernatant; also called Antibody ID 71
Molecule B3 showed a Kd of 0.241 nM, a koff of 0.000252 s⁻¹ and a kon of 1.05e+06 M⁻¹ s⁻¹.

B4: germline variant antibody 75 (H1917C09 / K1917C09) (antibody, V domains shown)
VH: B2 VH with A9T, A11V, M45L, F54Y, D57G, R65Q, T74K
VL: B1 VL with S33G, T40S, Q43H, V84L, H93Y, E97D, F100Y
notes: IGHG1/IGKC expression vectors; measured from CHO culture supernatant; also called Antibody ID 75
With B4, the affinity, expressed as Kd, was 2.92 nM; the koff came to 0.000925 s⁻¹; the kon is 317000 M⁻¹ s⁻¹.

B5: germline variant antibody 47 (H1916E08 / K1916E08) (antibody, V domains shown)
VH: B2 VH with A11V, G24A, G31D, I48M, F54Y, D57G, G66D, T74K, Y107D
VL: B1 VL with S33G, T40S, E97D
notes: IGHG1/IGKC expression vectors; measured from CHO culture supernatant; also called Antibody ID 47
Consider B5, for which the Kd amounted to 2.06 nM, the koff was determined as 0.000804 s⁻¹ and the kon is 391000 M⁻¹ s⁻¹.

B6: germline variant antibody 59 (H1916G05 / K1916G05) (antibody, V domains shown)
VH: B1 VH with G24A, G31E, H35Y, E66D, A68V, T74K, I114V
VL: B1 VL with T40S, Q43H, T69S, E97D, F100Y
notes: IGHG1/IGKC expression vectors; measured from CHO culture supernatant; also called Antibody ID 59
B6 displayed a Kd of 1.04 nM, a koff of 0.000312 s⁻¹ and an on-rate constant (kon) of 299000 M⁻¹ s⁻¹.

B7: germline variant antibody 76 (H1917C10 / K1917C10) (antibody, V domains shown)
VH: B1 VH with E10G, G31D, Y54F, G57D, T74K, I114V
VL: B1 VL with S33G, T40S, L52M, T69S, E97D
notes: IGHG1/IGKC expression vectors; measured from CHO culture supernatant; also called Antibody ID 76
Regarding B7, binding was put at a Kd of 2.72 nM, the off-rate (koff) came to 0.00105 s⁻¹ and the kon came to 386000 M⁻¹ s⁻¹.

B8: germline variant antibody 54 (H1916F09 / K1916F09) (antibody, V domains shown)
VH: B1 VH with G24A, G31E, R65Q, E66G, I114V
VL: B1 VL with E97D
notes: IGHG1/IGKC expression vectors; measured from CHO culture supernatant; also called Antibody ID 54
B8 returned a Kd of 1.26 nM, a koff of 0.000688 s⁻¹ and a kon of 548000 M⁻¹ s⁻¹.

B9: germline variant antibody 85 (H1917E02 / K1917E02) (antibody, V domains shown)
VH: B1 VH with G24A, G31E, H35Y, L50V, S59T, R65K, E66D, I114V
VL: B1 VL with T40S, Q43H, T69S, H93Y, E97D, F100Y
notes: IGHG1/IGKC expression vectors; measured from CHO culture supernatant; also called Antibody ID 85
B9 registered a Kd of 1.28 nM, a koff of 0.00037 s⁻¹ and a kon of 289000 M⁻¹ s⁻¹.

B10: germline variant antibody 80 (H1917D07 / K1917D07) (antibody, V domains shown)
VH: B2 VH with A9T, A11V, G24A, G31E, Y35H, I48M, V50L, T59S
VL: B1 VL with V84L, H93Y, E97D
notes: IGHG1/IGKC expression vectors; measured from CHO culture supernatant; also called Antibody ID 80
B10 returned a dissociation constant Kd of 0.696 nM, a koff of 0.000454 s⁻¹ and a kon of 652000 M⁻¹ s⁻¹.

B11: germline variant antibody 79 (H1917D04 / K1917D04) (antibody, V domains shown)
VH: B1 VH with A9T, G31E, L45M, S59T, A68V, T74K, I114V
VL: B1 VL with S33G, Q43H, L52M, T69S, V84L, H93Y, E97D, F100Y
notes: IGHG1/IGKC expression vectors; measured from CHO culture supernatant; also called Antibody ID 79
Consider B11, for which the Kd turned out to be 2.87 nM, the koff amounted to 0.00129 s⁻¹ and the kon was 450000 M⁻¹ s⁻¹.

B12: germline variant antibody 45 (H1916E05 / K1916E05) (antibody, V domains shown)
VH: B1 VH with G31E, H35Y, M48I, R65Q, E66G, A68V, L113F, I114V
VL: B1 VL with S33G, T40S, Q43H, H93Y, E97D
notes: IGHG1/IGKC expression vectors; measured from CHO culture supernatant; also called Antibody ID 45
As to B12, the Kd came out at 0.562 nM, the koff worked out at 0.000255 s⁻¹ and the kon stood at 455000 M⁻¹ s⁻¹.

B13: germline variant antibody 92 (H1917F05 / K1917F05) (antibody, V domains shown)
VH: B1 VH with G31E, H35Y, Y54F, S59T, R65Q, E66G, R87Q, I114V
VL: B1 VL with S33G, Q43H, L52M, T69S, D76N, E97D, F100Y
notes: IGHG1/IGKC expression vectors; measured from CHO culture supernatant; also called Antibody ID 92
B13 returned a Kd of 1.01 nM, a koff of 0.000361 s⁻¹ and a kon of 357000 M⁻¹ s⁻¹.

B14: germline variant antibody 91 (H1917F03 / K1917F03) (antibody, V domains shown)
VH: B1 VH with A9T, G31E, L45M, R65Q, I114V
VL: B1 VL with S33G, T40S, T69S
notes: IGHG1/IGKC expression vectors; measured from CHO culture supernatant; also called Antibody ID 91
In turn, B14 came in with a Kd of 3.07 nM, a koff of 0.00159 s⁻¹ and a kon of 520000 M⁻¹ s⁻¹.

B15: germline variant antibody 86 (H1917E03 / K1917E03) (antibody, V domains shown)
VH: B2 VH with A11V, G31E, I48M, F54Y, D57G, G66D, V68A
VL: B1 VL with S33G, Q43H, T69S, H93Y, E97D, F100Y
notes: IGHG1/IGKC expression vectors; measured from CHO culture supernatant; also called Antibody ID 86
B15 showed a Kd of 0.75 nM, a koff of 0.000432 s⁻¹ and a kon of 577000 M⁻¹ s⁻¹.
